The values that follow come from publication PMC10646254.

One test concerns the target SP1 (UniProt P08047). The experiment in a line: co-immunoprecipitation, western blot. As to conditions: reference: wild type; sites T361,T366,S381,S387.
A further test concerns the target SP3 (UniProt Q02447). The experiment in a line: co-immunoprecipitation, western blot. The following applies: reference: wild type; sites T361,T366,S381,S387. (A western blot detects proteins with antibodies after separation by electrophoresis.)

For “ELK4 (from UniProt P28324) 4MA (T361/T366/S381/S387A)”, the “binding against the reference” value with SP1 and in the test with SP3 was “weaker” in each case.
